Measured values reported in article PMC4364448.
pKd: −log10 of the molar value.

Target: Arp2/3 complex (bovine) (UniProt A7MB62)
Assay: ITC

## Human GMFγ (from UniProt O60234 1-142) (natural protein)
  pKd: 6.70

## WCA_(N-WASP) (domain or fragment)
  Kd site-1: 20 nM
  Kd site-2: 182 nM
  stoichiometry N: 2

## WCA_(WAVE) (domain or fragment)
  fold lower affinity than N-WASP WCA, site-1: 2 fold
  fold lower affinity than N-WASP WCA, site-2: 6 fold
  stoichiometry N: 2
